Measurements: publication PMC5385344, “Large Diversity of Functional Nanobodies from a Camelid Immune Library Revealed by an Alternative Analysis of Next-Generation Sequencing Data” (Frontiers in Immunology, 2017)

B1: 11F03 (VHH)
VHH: EVQLVESGGGLVQAGGSLRLSCVVSGIYFRLYTMNWYRQALGKQREYVAMITNDGSTNYGASIKGRFTISRDNAKNTVYLQMNNLNPEDTAVYYCNAHDYWGQGTQVTVSS
B2: 11G06 (VHH)
VHH: EVQLVESGGGLVQPGGSLRLSCAASGSIFSVNAMGWYRQAPGKQRELVASMVSGRSPAYADSVKGRFTISRDNAENTVYLQMNSLKPEDTAVYYCNIKGEYYSRSQYNVWGQGTQVTVSS
B3: 11G07 (VHH)
VHH: EVQLVESGGGLVQAGGSLRLSCAASGRSFSGDTMGWFLQAPGKEREFVAGINWSSRSTNYADSVKGRFTISRDNAKNTVYLQMNTLKPEDTAVYYCAAGPPSPYIYSRPDLYTYWGQGTQVTVSS
B4: 11G10 (VHH)
VHH: EVQLVESGGGSVQAGGSLRLSCAASGRVAMGWFRQAPGKEREFVAAISASGGSSSYADSVKGRFTISRDSAKSTVYLQMNSLEPEDTAVYYCAARARTLGWVSADVSAYDYWGQGTQVTVSS
B5: KY704038 (VHH)
VHH: EVQLVESGGGLVQAGGSLRLSCASSGIAFRLRTMDWYRQAPGNQREWVATITSDYSTDYADSVKGRFTISRDNAQNTVYLQMNSLKPEDTAVYYCHAGGVVWGQGTLVTVSS
B6: KY704039 (VHH)
VHH: EVQLVESGGGLVQAGGSLRLTCAASGNFFNIITMGWFRQAPGKERELVAVDTAGRSISYLDSVKGRFTIVRDNAKNTVILEMNSLTPEDTAVYYCYATGHRSVTGGIYVTWGQGTLVTVSS
B7: KY704041 (VHH)
VHH: EVQLVESGGGLVQAGGSLRLSCAASGRAFSSYAMGWFRQAPGKEREFVAVISGRGGVTYYAASVKGRFTISRDNAKNTVLLQMSSLKPEDTGVYYCAAGPNIGVLTDPAYSGGDWGQGTLVTVSS
B8: KY704042 (VHH)
VHH: EVQLVESGGGLVQAGGSLRLSCAASGRSFGSYHMGWFRQALGKEREFVAAISSGGGLLDYEDSVKGRFTISRDNAKNTVYLQMNSLTPEDTAVYYCAATARVWGSWFTSDYDYWGQGTLVTVSS
B9: KY704043 (VHH)
VHH: EVQLVESGGGLVQAGGSLRLSCVASGRAYRNYVMGWFRQGPGKEREFVATIRPDDGSILSSNSVRGRITISSDNAKNTVYLQMSTLAPEDTAIYYCAYGTTPSMLARKYDYWGQGTLVTVSS
B10: KY704044 (VHH)
VHH: EVQLVESGGGLVQAGGSLRLSCAASGRTSSIYRMGWFRQAPGKERDIVASIHWSGGRWFYADFVKGRFTISRDNAENTVYLQMSSLKPEDTAVYYCAARTPGTLTYDYWGQGTLVTVSS
B11: KY704045 (VHH)
VHH: EVQLVESGGGLVQAGGSLRLSCAASGRTFSSYIMAWFRQAPGKERDVVATVSWGGETTYYADSVKGRFTISRDNAKNTVYLQMNSLKPEDTAVYYCAASHARGYWHTPFTVADVGSWGQGTLVTVSS
B12: KY704047 (VHH)
VHH: EVQLVESGGGLVQAGGSLRLSCAASGIPFSRYHMGWFRQAPGKEREFVASVSWSGQNTYYADSVKGRFTISRDNAKNTGNLQMNSMKPEDTAVYYCAAGSRYYTDIIPNYYRYWGQGTLVTVSS
B13: KY704048 (VHH)
VHH: EVQLVESGGGLVQAGGSLRLSCAASGDTFSTYGMGWFRQAPGKEREIVARITWNRRTYYADSVKGRFTISRDNAKNAAYLEMNSLKPEDTAVYMCAAVRGDNLFHTRPRDYDYWGQGTLVTVSS
B14: KY704049 (VHH)
VHH: EVQLVESGGGVVQTGGSLRLSCAASGRYAMGWFRQVSGKEREFVAFISASGGSTYYADSVKGRFTISRDNAKTTLAYLQMISLKPEDTAVYYCATSGGIFRGLYYDTRNYNYWGQGTLVTVSS
B15: KY704050 (VHH)
VHH: EVQLVESGGGLVQAGGSLRLSCVASGRTLSSYTMGWFRQAPGKEREFLALITWSGGSTHYADSVKGRFTISRDNPKNTAYLQMGSLKPEDTAVYFCAARFRGVIATMARDYDYWGQGTLVTVSS
B16: KY704052 (VHH)
VHH: EVQLVESGGGLVQAGGSLRLSCAASGRTFSDYSMGWFRQAPGKEREPVAAVSRSGDDLMYENSLKGRFAISRDNAKNTVYLQMNSLKPEDTAVYYCAASTRFITALAANYDYWGQGTLVTVSS
B17: KY704053 (VHH)
VHH: EVQLVESGGGLVQAGDSLRLSCAASGRTFSIYSMGWFRQATGKEREFVAAIRWSGTRTYYADSVKGRFTISGDIAKNTVYLQMNNLKPEDTAVYSCAAGGSRGYVAAPDRWDYWGQGTLVTVSS
B18: KY704054 (VHH)
VHH: EVQLVESGGGLVQTGGSLRLSCAASGIYFRLYTMGWYRQAPGNQRELVALITSTRSTHYADSVKGRFTISRDNAKNTLYLQMNSLKPEDTAVYYCNAHNGQGDFWGQGTLVTVSS
B19: KY704055 (VHH)
VHH: EVQLVESGGGVVQAGGSLRLSCAASGRYGVGWFRQPPGKEREFVSAVSKSGGSTYYEDSVKGRFTISRDGAKNTVYLQMNSLKPEDTAVYYCAADGGGYSAYYYYTHQTEYEYWGQGTLVTVSS
B20: KY704056 (VHH)
VHH: EVQLVESGGGLVQAGGSLRLSCAASGRYVMGWFRQAPGKEREFVAAITRSGATTNYADSVKGRFTISRDSAKITVYLQMDSLKPEDTAVYYCAASGRYYTAAVEGANYDYWGQGTLVTVSS
B21: KY704058 (VHH)
VHH: EVQLVESGGGLVQAGDSLRLSCAASGGTLNGYAMAWFRQAPGKERDVVATINWSGSWKYYADSVKGRFTISRDNAKGTVYLQMNSLKPEDTAVYRCAARRGGGNYYTRAVDFDYWGQGTLVTVSS
B22: KY704059 (VHH)
VHH: EVQLVESGGGLVQAGGSLRLSCTASGRSFSRYTMGWFRQAAGKERVFVAHIAWSGGTRYYADSVKGRFTISRDNAKNTVWLQMNSLKPEDTAVYYCAATSQTGLIVVNTRDYEIWGQGTLVTVSS
B23: KY704060 (VHH)
VHH: EVQLVESGGGLVQSGDSLRLSCAASGRSFSRSTMGWFRQAPEKEREFVAVISWAGTTTYYHDSVKGRFTISRDNAKNTVYLQMNSLKPEDTAVYYCAGGRDARILRNARDYDYWGQGTLVTVSS
B24: KY704061 (VHH)
VHH: EVQLVESGGGLVQAGGSLRLSCAASGRTFSNDAMGWFRQAPGKERAFVGVINWNGVTTRYTDSVEGRFTISRDNAKNTVYLQMNSLKPEDTAVYFCAAGGGPVAVSSGRSAYWGQGTLVTVSS
B25: KY704062 (VHH)
VHH: EVQLVESGGGLVQAGGSLRLSCAASGLAFSSYAAGWFRQAPGKEREFLAVISRGGGTTYYANFVKGRFSISRDNAENTVYLQMNSLKPEDTAVYYCGADTYFGRLVSDPITSDYWGQGTLVTVSS
B26: nanobody 5G04 (VHH)
VHH: EVQLVESGGALVQAGDSLRVSCVASGRTFSHYAMGWFRQAPGKQREFVAAISWDGDSTSYANSLKGRFTISRDNAKNTGYLYMNSLIPEDTAVYYCAAGPNFSTLARRYDYWGQGTLVTVSS
notes: From a llama immunised with rhRON; found by conventional screening and by NGS; source: E. coli, crude periplasmic extract; E. coli, purified; not shown: FLAG3, C-terminal, kept
B27: nanobody 2D07 (VHH)
VHH: EVQLVESGGGLVQPGGSLRLSCAASGFTFRAYNMNWLRQAPGKGLEWVSVISGGGGGTLYADSVKGRFTISRDNAKNTLYLQMNSLKPEDTAVYYCAGSDFFADYGRPRHEYRYWGQGTQVTVSS
notes: as for B26

What follows are binders tested against T1, Recombinant extracellular domain of human RON (rhRON) (human, UniProt Q04912) (assay: not given). Details: not given.
T1 sequence (Q04912 25-957): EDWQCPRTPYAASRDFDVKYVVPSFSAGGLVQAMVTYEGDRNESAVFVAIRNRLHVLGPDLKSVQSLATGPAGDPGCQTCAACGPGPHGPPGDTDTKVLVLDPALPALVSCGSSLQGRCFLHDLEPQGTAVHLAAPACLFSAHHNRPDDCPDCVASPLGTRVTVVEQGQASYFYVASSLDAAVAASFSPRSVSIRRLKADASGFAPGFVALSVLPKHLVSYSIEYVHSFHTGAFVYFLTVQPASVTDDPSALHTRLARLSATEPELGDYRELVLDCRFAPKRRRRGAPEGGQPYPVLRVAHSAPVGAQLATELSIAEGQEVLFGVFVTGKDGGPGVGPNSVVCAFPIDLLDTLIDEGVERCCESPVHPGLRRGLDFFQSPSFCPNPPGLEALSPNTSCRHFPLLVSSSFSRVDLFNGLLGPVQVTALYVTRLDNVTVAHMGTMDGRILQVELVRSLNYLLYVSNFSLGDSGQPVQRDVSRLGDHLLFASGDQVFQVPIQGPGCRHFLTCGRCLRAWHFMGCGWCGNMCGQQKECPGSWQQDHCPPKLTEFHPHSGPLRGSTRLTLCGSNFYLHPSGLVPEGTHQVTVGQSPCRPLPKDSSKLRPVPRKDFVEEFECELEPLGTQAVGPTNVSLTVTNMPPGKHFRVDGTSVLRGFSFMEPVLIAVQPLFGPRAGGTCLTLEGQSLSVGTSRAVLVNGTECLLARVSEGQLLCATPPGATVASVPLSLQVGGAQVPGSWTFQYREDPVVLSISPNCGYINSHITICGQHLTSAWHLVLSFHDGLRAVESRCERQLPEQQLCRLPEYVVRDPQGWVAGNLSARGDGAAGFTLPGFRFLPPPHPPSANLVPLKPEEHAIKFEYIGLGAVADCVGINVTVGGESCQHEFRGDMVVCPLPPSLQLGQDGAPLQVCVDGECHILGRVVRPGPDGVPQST
B1: binds. B2: binds. B3: binds. B4: binds. B5: binds. B6: binds. B7: binds. B8: binds. B9: binds. B10: binds. B11: binds. B12: binds. B13: binds. B14: binds. B15: binds. B16: binds. B17: binds. B18: binds. B19: binds. B20: binds. B21: binds. B22: binds. B23: binds. B24: binds. B25: binds.

The binders below were run against full-length human RON expressed on HEK293T cells (HEK293T-hRON) (Homo sapiens, UniProt Q04912) (assay: not given). Details: not given.
Sequence of full-length human RON expressed on HEK293T cells (HEK293T-hRON) (Q04912 25-1400): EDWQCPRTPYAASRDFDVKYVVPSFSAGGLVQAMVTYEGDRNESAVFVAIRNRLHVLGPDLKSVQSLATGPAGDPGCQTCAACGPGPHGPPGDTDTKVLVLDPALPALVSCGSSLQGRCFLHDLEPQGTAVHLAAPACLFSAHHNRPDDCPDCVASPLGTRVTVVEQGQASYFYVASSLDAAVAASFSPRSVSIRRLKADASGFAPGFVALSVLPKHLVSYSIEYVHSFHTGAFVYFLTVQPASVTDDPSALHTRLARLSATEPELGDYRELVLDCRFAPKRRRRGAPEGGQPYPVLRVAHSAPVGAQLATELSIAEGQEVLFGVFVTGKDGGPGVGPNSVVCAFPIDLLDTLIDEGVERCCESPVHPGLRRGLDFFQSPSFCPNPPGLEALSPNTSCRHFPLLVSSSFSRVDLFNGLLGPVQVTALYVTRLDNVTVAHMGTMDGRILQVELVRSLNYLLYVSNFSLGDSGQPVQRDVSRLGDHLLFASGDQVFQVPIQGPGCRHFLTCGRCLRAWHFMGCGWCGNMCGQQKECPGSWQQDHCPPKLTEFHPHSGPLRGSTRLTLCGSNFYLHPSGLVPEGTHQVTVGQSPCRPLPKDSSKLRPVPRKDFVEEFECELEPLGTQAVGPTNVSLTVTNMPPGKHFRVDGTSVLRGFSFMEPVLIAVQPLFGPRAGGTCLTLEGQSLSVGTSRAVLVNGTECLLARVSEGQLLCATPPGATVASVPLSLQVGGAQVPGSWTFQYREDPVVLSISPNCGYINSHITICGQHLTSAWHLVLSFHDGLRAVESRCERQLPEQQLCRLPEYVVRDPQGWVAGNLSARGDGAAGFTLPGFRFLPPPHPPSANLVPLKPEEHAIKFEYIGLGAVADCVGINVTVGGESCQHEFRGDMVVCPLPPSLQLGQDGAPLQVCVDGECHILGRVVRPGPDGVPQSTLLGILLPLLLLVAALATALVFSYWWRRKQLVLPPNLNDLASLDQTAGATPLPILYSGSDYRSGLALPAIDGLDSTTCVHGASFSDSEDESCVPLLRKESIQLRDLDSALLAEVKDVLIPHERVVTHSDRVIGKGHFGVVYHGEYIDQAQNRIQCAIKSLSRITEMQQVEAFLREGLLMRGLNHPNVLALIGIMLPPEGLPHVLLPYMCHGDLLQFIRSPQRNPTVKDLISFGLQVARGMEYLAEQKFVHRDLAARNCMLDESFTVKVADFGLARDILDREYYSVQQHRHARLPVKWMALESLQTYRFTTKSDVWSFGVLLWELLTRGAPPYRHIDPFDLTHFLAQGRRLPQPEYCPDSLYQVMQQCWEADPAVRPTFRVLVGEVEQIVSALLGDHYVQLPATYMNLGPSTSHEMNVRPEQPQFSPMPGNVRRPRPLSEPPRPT
B1: binds. B2: binds. B3: binds. B4: binds. B5: binds. B6: binds. B7: binds. B8: binds. B9: binds. B10: binds. B11: binds. B12: binds. B13: binds. B14: binds. B15: binds. B16: binds. B17: binds. B18: binds. B19: binds. B20: binds. B21: binds. B22: binds. B23: binds. B24: binds. B25: binds.

Each binder was assayed against T2, RON endogenously expressed on T-47D human breast cancer cells (Homo sapiens (T-47D cell line), UniProt Q04912) (assay: cell-based or functional assay). Details: not given.
T2 sequence (Q04912 25-1400): as above
For B26, the “IC50 (M) inhibition of ERK phosphorylation induced by 1 nM MSP through RON on T-47D cells; purified nanobody, HTRF phospho-ERK” value was 4.9e-09 M and the “maximum inhibition (efficacy) of MSP-induced ERK phosphorylation in T-47D cells” value was 100%. B27 was tested, and the “IC50 (M) inhibition of ERK phosphorylation induced by 1 nM MSP through RON on T-47D cells; purified nanobody, HTRF phospho-ERK” value was 1.8e-08 M and the “maximum inhibition (efficacy) of MSP-induced ERK phosphorylation in T-47D cells” value was 100%.

The binders below were run against T1, Recombinant extracellular domain of … (assay: SPR; ProteOn; rhRON immobilised on GLC chip; 1/10 diluted crude periplasmic extracts injected 2 min at 45 µl/min; Langmuir model, off-rate only). Details: one partner purified.
B26 was tested, and the koff was 0.00029 s⁻¹. In the case of B27, the koff is reported as 0.005 s⁻¹.

The binders below were run against T2, RON endogenously expressed on T-47D … (assay: flow cytometry on cells; dilution series of purified nanobodies starting at 500 nM on T-47D cells endogenously expressing RON; anti-FLAG then anti-mouse APC). Details: one partner purified.
In the case of B26, the EC50 is reported as 0.33 nM. Binder B27 has an EC50 of 5 nM.
